Target: FITC-labeled porcine brain tubulin (porcine) (UniProt P02550)
Assay: co-sedimentation

fluorescence intensity (B/A) of the precipitate, labeled tubulin alone (6:0): 27.5
Substance: FITC-labeled porcine brain tubulin (from UniProt P02550 1-451) (complex)
